According to IntAct's records for PubMed 20837657:

B1: Segment polarity protein dishevelled (Drosophila melanogaster (Fruit fly)), P51140 (parent)
chain: MDADRGGGQETKVIYHIDDETTPYLVKIPIPSAQVTLRDFKLVLNKQNNNYKYFFKSMDADFGVVKEEIADDSTILPCFNGRVVSWLVSADGTNQSDNCSELPTSECELGMGLTNRKLQQQQQQHQQQQQQQQQQHQQQQQQQQQQVQPVQLAQQQQQQVLHHQKMMGNPLLQPPPLTYQSASVLSSDLDSTSLFGTESELTLDRDMTDYSSVQRLQVRKKPQRRKKRAPSMSRTSSYSSITDSTMSLNIITVSINMEAVNFLGISIVGQSNRGGDGGIYVGSIMKGGAVALDGRIEPGDMILQVNDVNFENMTNDEAVRVLREVVQKPGPIKLVVAKCWDPNPKGYFTIPRTEPVRPIDPGAWVAHTQALTSHDSIIADIAEPIKERLDQNNLEEIVKAMTKPDSGLEIRDRMWLKITIPNAFIGADAVNWVLENVEDVQDRREARRIVSAMLRSNYIKHTVNKLTFSEQCYYVVNEERNPNLLGRGHLHPHQLPHGHGGHALSHADTESITSDIGPLPNPPIYMPYSATYNPSHGYQPIQYGIAERHISSGSSSSDVLTSKDISASQSDITSVIHQANQLTIAAHGSNKSSGSSNRGGGGGGGGGGNNTNDQDVSVFNYVL

Variants of: B1
Details: with abl_drome Abl

effect of a mutation on the interaction | Variant
decreasing interaction strength | Y473F
